Test results: the supplement of paper PMC10724198
± gives the standard deviation of the averaged measurements.

How the values were obtained:
Saccharomyces cerevisiae [1] = assay: protein stability index of tFT-peptide fusion (C-terminal peptide) (PSI (0-1 scale)); higher = more stable (slower turnover); details: genetic background: wild type; temperature: 30 C
Saccharomyces cerevisiae [2] = assay: as above
Protocol: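 MPS profiling in S. cerevisiae of the tFT-X12 degron library: putative degron peptides plus stable controls, 12 aa, fused to the C-terminus of a sfGFP-mCherry timer. Cells are FACS-sorted into 8 mCherry/sfGFP bins and deep-sequenced. PSI runs from 0 (unstable) to 1 (stable). Backgrounds are wild type, das1Δ and doa10Δ at 30 °C, and wild type, das1Δ, cdc34-1 and cdc53-1 at 37 °C; 2-3 technical replicates each.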

[3] = genetic background: cdc34-1, temperature: 37 C
[4] = genetic background: cdc53-1, temperature: 37 C
[5] = genetic background: das1 deletion, temperature: 30 C
[6] = genetic background: das1 deletion, temperature: 37 C
[7] = genetic background: doa10 deletion, temperature: 30 C
[8] = genetic background: wild type, temperature: 30 C
[9] = genetic background: wild type, temperature: 37 C
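Further: PSI is a weighted mean of sequencing reads over stability bins, variants kept only with over 10 reads, mCherry proximal and sfGFP distal, peptide attached via GGGS linker.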

VGFYGRWVCVAC
protein stability index (Saccharomyces cerevisiae [1]): 0.29 ± 0.04 | protein stability index (Saccharomyces cerevisiae [2]; [3]): 0.366 ± 0.053 | protein stability index (Saccharomyces cerevisiae [2]; [4]): 0.462 ± 0.024 | protein stability index (Saccharomyces cerevisiae [2]; [5]): 0.287 ± 0.015 | protein stability index (Saccharomyces cerevisiae [2]; [6]): 0.435 ± 0.0074 | protein stability index (Saccharomyces cerevisiae [2]; [7]): 0.236 ± 0.011 | protein stability index (Saccharomyces cerevisiae [2]; [8]): 0.265 ± 0.019 | protein stability index (Saccharomyces cerevisiae [2]; [9]): 0.384 ± 0.0068

VGGSRGARLGVG
protein stability index (Saccharomyces cerevisiae [1]): 0.386 ± 0.014 | protein stability index (Saccharomyces cerevisiae [2]; [3]): 0.352 ± 0.012 | protein stability index (Saccharomyces cerevisiae [2]; [4]): 0.448 ± 0.014 | protein stability index (Saccharomyces cerevisiae [2]; [5]): 0.389 ± 0.011 | protein stability index (Saccharomyces cerevisiae [2]; [6]): 0.426 ± 0.0085 | protein stability index (Saccharomyces cerevisiae [2]; [7]): 0.3945 ± 0.00071 | protein stability index (Saccharomyces cerevisiae [2]; [8]): 0.384 ± 0.01 | protein stability index (Saccharomyces cerevisiae [2]; [9]): 0.42 ± 0.021

VGRANLSVIRKV
protein stability index (Saccharomyces cerevisiae [1]): 0.436 ± 0.013 | protein stability index (Saccharomyces cerevisiae [2]; [3]): 0.632 ± 0.016 | protein stability index (Saccharomyces cerevisiae [2]; [4]): 0.733 ± 0.016 | protein stability index (Saccharomyces cerevisiae [2]; [5]): 0.636 ± 0.014 | protein stability index (Saccharomyces cerevisiae [2]; [6]): 0.715 ± 0.019 | protein stability index (Saccharomyces cerevisiae [2]; [7]): 0.243 ± 0.011 | protein stability index (Saccharomyces cerevisiae [2]; [8]): 0.29 ± 0.024 | protein stability index (Saccharomyces cerevisiae [2]; [9]): 0.588 ± 0.013

VGSSSGRLLYLC
protein stability index (Saccharomyces cerevisiae [1]): 0.481 ± 0.0082 | protein stability index (Saccharomyces cerevisiae [2]; [3]): 0.595 ± 0.007 | protein stability index (Saccharomyces cerevisiae [2]; [4]): 0.73 ± 0.0093 | protein stability index (Saccharomyces cerevisiae [2]; [5]): 0.633 ± 0.0066 | protein stability index (Saccharomyces cerevisiae [2]; [6]): 0.7466 ± 0.0065 | protein stability index (Saccharomyces cerevisiae [2]; [7]): 0.2656 ± 0.002 | protein stability index (Saccharomyces cerevisiae [2]; [8]): 0.302 ± 0.022 | protein stability index (Saccharomyces cerevisiae [2]; [9]): 0.43 ± 0.0049

VGTIVLTCIEVN
protein stability index (Saccharomyces cerevisiae [1]): 0.279 ± 0.017 | protein stability index (Saccharomyces cerevisiae [2]; [3]): 0.0595 ± 0.022 | protein stability index (Saccharomyces cerevisiae [2]; [4]): 0.0586 ± 0.013 | protein stability index (Saccharomyces cerevisiae [2]; [5]): 0.191 ± 0.022 | protein stability index (Saccharomyces cerevisiae [2]; [6]): 0.22 ± 0.0081 | protein stability index (Saccharomyces cerevisiae [2]; [7]): 0.1519 ± 0.00081 | protein stability index (Saccharomyces cerevisiae [2]; [8]): 0.187 ± 0.011 | protein stability index (Saccharomyces cerevisiae [2]; [9]): 0.205 ± 0.0017

VGVVLWVWGLGD
protein stability index (Saccharomyces cerevisiae [1]): 0.446 ± 0.035 | protein stability index (Saccharomyces cerevisiae [2]; [3]): 0.533 ± 0.026 | protein stability index (Saccharomyces cerevisiae [2]; [4]): 0.6012 ± 0.0037 | protein stability index (Saccharomyces cerevisiae [2]; [5]): 0.409 ± 0.033 | protein stability index (Saccharomyces cerevisiae [2]; [6]): 0.636 ± 0.022 | protein stability index (Saccharomyces cerevisiae [2]; [7]): 0.423 ± 0.0063 | protein stability index (Saccharomyces cerevisiae [2]; [8]): 0.426 ± 0.032 | protein stability index (Saccharomyces cerevisiae [2]; [9]): 0.61 ± 0.03

VGVVVVGDVLVW
protein stability index (Saccharomyces cerevisiae [1]): 0.424 ± 0.046 | protein stability index (Saccharomyces cerevisiae [2]; [3]): 0.286 ± 0.071 | protein stability index (Saccharomyces cerevisiae [2]; [4]): 0.375 ± 0.02 | protein stability index (Saccharomyces cerevisiae [2]; [5]): 0.279 ± 0.03 | protein stability index (Saccharomyces cerevisiae [2]; [6]): 0.423 ± 0.0065 | protein stability index (Saccharomyces cerevisiae [2]; [7]): 0.2321 ± 0.0019 | protein stability index (Saccharomyces cerevisiae [2]; [8]): 0.26 ± 0.025 | protein stability index (Saccharomyces cerevisiae [2]; [9]): 0.402 ± 0.0091

VIQNKKKNKITS
protein stability index (Saccharomyces cerevisiae [1]): 0.372 ± 0.027 | protein stability index (Saccharomyces cerevisiae [2]; [3]): 0.599 ± 0.048 | protein stability index (Saccharomyces cerevisiae [2]; [4]): 0.6883 ± 0.0049 | protein stability index (Saccharomyces cerevisiae [2]; [5]): 0.642 ± 0.013 | protein stability index (Saccharomyces cerevisiae [2]; [6]): 0.736 ± 0.0094 | protein stability index (Saccharomyces cerevisiae [2]; [7]): 0.177 ± 0.021 | protein stability index (Saccharomyces cerevisiae [2]; [8]): 0.168 ± 0.015 | protein stability index (Saccharomyces cerevisiae [2]; [9]): 0.284 ± 0.018

VIYYVRVGLVLS
protein stability index (Saccharomyces cerevisiae [1]): 0.203 ± 0.025 | protein stability index (Saccharomyces cerevisiae [2]; [3]): 0.0324 ± 0.0007 | protein stability index (Saccharomyces cerevisiae [2]; [4]): 0.115 ± 0.053 | protein stability index (Saccharomyces cerevisiae [2]; [5]): 0.119 ± 0.03 | protein stability index (Saccharomyces cerevisiae [2]; [6]): 0.167 ± 0.0084 | protein stability index (Saccharomyces cerevisiae [2]; [7]): 0.108 ± 0.016 | protein stability index (Saccharomyces cerevisiae [2]; [8]): 0.117 ± 0.045 | protein stability index (Saccharomyces cerevisiae [2]; [9]): 0.126 ± 0.016

VLARGFHCMYFC
protein stability index (Saccharomyces cerevisiae [1]): 0.484 ± 0.048 | protein stability index (Saccharomyces cerevisiae [2]; [3]): 0.68 ± 0.025 | protein stability index (Saccharomyces cerevisiae [2]; [4]): 0.736 ± 0.022 | protein stability index (Saccharomyces cerevisiae [2]; [5]): 0.621 ± 0.022 | protein stability index (Saccharomyces cerevisiae [2]; [6]): 0.75484 ± 0.00037 | protein stability index (Saccharomyces cerevisiae [2]; [7]): 0.444 ± 0.022 | protein stability index (Saccharomyces cerevisiae [2]; [8]): 0.447 ± 0.021 | protein stability index (Saccharomyces cerevisiae [2]; [9]): 0.623 ± 0.02
